From patent US20240117454

T1: Bovine neck ligament-derived elastin (SIGMA, E1625), P04985
T1 chain: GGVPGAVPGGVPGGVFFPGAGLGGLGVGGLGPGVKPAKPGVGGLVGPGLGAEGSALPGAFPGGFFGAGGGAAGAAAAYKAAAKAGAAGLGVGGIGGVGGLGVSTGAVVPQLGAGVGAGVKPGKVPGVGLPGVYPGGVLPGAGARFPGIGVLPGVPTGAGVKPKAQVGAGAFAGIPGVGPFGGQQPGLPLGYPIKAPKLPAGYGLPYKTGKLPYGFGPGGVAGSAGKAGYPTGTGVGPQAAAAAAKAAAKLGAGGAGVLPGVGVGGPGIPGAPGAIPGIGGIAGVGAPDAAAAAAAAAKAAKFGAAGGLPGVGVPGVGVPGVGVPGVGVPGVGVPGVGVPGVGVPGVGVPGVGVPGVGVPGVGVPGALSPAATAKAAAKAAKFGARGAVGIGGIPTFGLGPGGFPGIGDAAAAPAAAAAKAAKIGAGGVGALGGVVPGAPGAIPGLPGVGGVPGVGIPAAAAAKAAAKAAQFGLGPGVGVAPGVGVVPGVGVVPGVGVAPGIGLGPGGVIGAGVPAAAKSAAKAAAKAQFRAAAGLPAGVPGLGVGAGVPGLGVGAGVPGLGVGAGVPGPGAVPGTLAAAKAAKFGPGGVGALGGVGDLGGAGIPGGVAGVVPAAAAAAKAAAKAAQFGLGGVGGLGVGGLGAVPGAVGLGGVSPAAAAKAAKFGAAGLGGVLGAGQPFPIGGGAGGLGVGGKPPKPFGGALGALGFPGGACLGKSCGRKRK


How the values were obtained:
[1] = molecular target: T1, Bovine neck ligament-derived elastin …
[2] = molecular target: bovine Achilles tendon-derived collagen (SIGMA, C9879)

Row | Protein | elastin degrading activity (amount of peptides liberated, relative value to savinase) [1] | collagen degrading activity (amount of peptides liberated, relative value to savinase) [2]
1 | beta-lytic metallopeptidase (BLP) (protein) SAQGHGLSGEDLVYSYDEMFDFDIDAYLAKHAPHLHKHSEEISHWAGYSGISPKVLIALMEQQSGAVSAKRATNRPFGKLARADGFGAQTREVALALRESLYERDPDGAKGPVTLARANPLQALFERSGDNEPAAALRGDGEFQLVYGRLFNEPRQAKAASDRFAKAGPDVQPLSPNGL | BLP was equivalent in elastin degrading activity to savinase | had significantly lower collagen degrading activity as compared to savinase
2 | BLP homologue derived from Lysobacter gummosus (LgBLP) (protein) AERGLSGQDLVYSYDEMFDFDIDAYLAKNAPHLSRHAESISHWAGYSGISPKVLIALMEQQSGAITRKHAAADAAKRPFGALAKAKDFNGQTREVAQALREALYENDGPDAKGAVTVARANPLQALFERAGASQASAKLSGDGEFQLVYGRLFNEPRQAQAPSARFAKAGPDVQPLSP | LgBLP had lower elastin degrading activity as compared to savinase | 
